Test results from the nanobody polyreactivity screen of Harvey et al. (2022).

Assay: yeast display, Sf9 membrane polyspecificity reagent, FACS + sequencing; frameworks hold sequencing errors
Outline: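 Synthetic nanobody libraries on Saccharomyces cerevisiae BJ5465 were galactose-induced for 36–48 hours, stained 1 hour at 4 °C with 10% biotinylated, detergent-solubilized Sf9 membrane reagent and enriched on streptavidin microbeads. FACS then separated cells into low and high (top ~1%) gates by anti-HA (expression) and streptavidin (reagent binding) fluorescence. Genes were colony-PCR amplified, MiSeq 2 × 250 sequenced and CDR-length filtered. A clone's polyreactivity label is that of its gate of origin.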

Sequence	polyreactivity (PSR sort gate)
QVQLVESGGGLVQAGGSLRLSCAASGRIIYTYALGWYRQAPGKERELVAAISWSGGSTYYADSVKGRFTISRDNAKNTVYLQMNSLKREDTAVYYCNAAYYGYENLSKRGYWGQGTQVTVSS	high polyreactivity
QVQLVESGGGLVQAGGSLRLSCAASGSIFWPYAMGWYRQAPGKEREFVATISSSGSRTHYADSVKGRFTISRDNAKNTVSLQMNSLKPEDTAVYYCNADNPYSDGADSLGNYWGQGTQVTVSS	low polyreactivity
HVQLGESGGGLVQAGGSLRLSCAASGFIFDVYAMGWYRQAPGKERELVAAISSSGGRTYYADSVKGRFTISRDNAKNTVYLQMNSLKPEDTAVYYCAAKTHSRTKVYTADYWGQGTQVTVSS	high polyreactivity
QVQLVESGGGLVQAGGSLRLSCAASGRIFRYNVMGWYRQPPGKERELVAAIRWSGGSTYYADSVKGRFTISRDNAKNTVYLQMNSLKPEDTAVYYCNTVGRWRGYDYWGQGTQVTVSS	high polyreactivity
QVQLVESGGGLVQAGGSLRLSCAASGFIFYFNAMGWYRQAPGKERELVAAISASGGRTYFADSVKGRFTISRDNAKNTVYLLMNSLKPEDTAVYYCAARGGSYYFRRYNYWGQGTQVNVSS	high polyreactivity
QVQLVESGGGLVQAGGSLRLSCAASGSIISGYAMGWYRQAPGTERELVAAISSSGGRTYYADSVKGRFTISRDNAKNTVYLQMNSLKPEDTAVYYCAAAYTITYDYWGQGTQVTVSS	high polyreactivity
QVQLVESGGGLVQAGGSLRLSCAASGSTFVYNVMGWYRQAPGKERELVAAITSCVRTYYADSVKGRFTISRDNAKNTVYLQMNSLKPEDTAVYYCAARGYYSVVEYYYWGQGTQVTVSS	high polyreactivity
QVQIVESGGGLVQAGGSLRLSCAASGRILVPYTMGWYRQAPGKERELVAAITIGGRTTYADSVKGRFTISRDNAKNTVYLQMNSLKPEDTAVYYCAKRDWRYEWYGYDYWGQGTQVTVSS	low polyreactivity
IIQEGGSLRLSCAASGRTFSGYAMGWYRQAPGKERELIADITSGGSTYYADSVKGRFTISRDNAKNTVYLQMNSLKPEDTAVYYCAAERQIRSFWSSRTYEFGYWGQGTQVTVSS	low polyreactivity
QVQLVESGGGLVQAGGSLRLSCAASGSTFGTNAMGWYRQAPGKERELVAAITKSGGSTYADSVKGRFTISRDNAKNTVYLQMNSLKPEDTAVYYCAAPNRYSVPMYYWGQGTQVTVSS	low polyreactivity
QVQLVESAGGLVQAGGSLSLICAASGFIFDSYAMGWSRQAPGKERELVAAIDKRGGRTYYADSEKGRFTISRDNAKNTVYLQMNSLKPEDTAVYFCAADDYTGYGYWGQGTQVTVSS	high polyreactivity
QVQLVESGGGLVQAGGSLRLSCAASGITFGINAMGWYRQAPGKERELVAAITSGGSTYYADSVKGRFTISRDNAKNTVYLQMNSLKPEDTAVYDCAADYQYFVYCEYDYWGQGTQVTVSS	low polyreactivity
QVQLVESGGGLVQAGGSLRLSCAASGTFTVNTMGWYRQAPGKVSELVAAISTGDTTTYADSVKGRFTISRDNAKNTVYFQLNSLKPEDTAVYYCNVDIGVYAYESDYWGQGTQVTVSS	low polyreactivity
QVQLVDSGGGLVQAGGSLRLSCPASGRIFSWYAMGWYRQAPGKERELVATISSTGGSTYYADSVKGRFTISRDNAKNTVYLQMNSLKAEHTAVYYCNAVVYGIFLYAWYDYWGQGTQVTVSS	low polyreactivity
QVQLVESGGGLVQAGGSLRLSCAASGITFGRYAMGWYSQAPGKARELVASITVNGGRTYYADSVKGRFTISRDNAKNTVNLQMNSLKPEDTAVSYCAAERRNSYVLLFKYNYWGQGTQVTVSS	low polyreactivity
QVQLVESGGGLVQAGGSLRLSCAASGRTFYRSAMGWYRQAPGKERELVAAISSSGGRTYYADSVKGRFTISRDYAKNTVYLQMNSLKPEDTAVYYCNAAPSWSTSFDSWGQGTQVTVSS	high polyreactivity
QVQLVESGGGLVQAGVRLRLSCADSGSTFYLNAIGWYRQAPGKERELVAAITRVGRTYYADSVKGRFTISRDNAKNTVYLQMNSLKPEDTAVYYCNALGHYKLWGLGTQVTVSS	high polyreactivity
QVQHVESGGGIVQAGGSLRISCSASGRTLGYYAMGLYRQAPGKETEMVAASSRSGGSTYYADSVQGRFTNSRDNAKNTVYVEMQSLNPEDTAVYDCAATYGPSRYRYDYWGQGTQVTVSS	high polyreactivity
QVQLVESGGGLVQAGGSLRLSCAASGSIFIPNAMGWYRQAPGKERELVAAISLSDTTTYYADSVKGRFTISRDNAKNTVYLQMNSLKPEDTAVYYCNKLTYGRVWDHHYDYWGQGTQVTVSS	low polyreactivity
QVQLVESGGGLLQAGGSLRLSCAASGSTFYDNAMGWYRQAPGKERELVAAISYSGASTYYADSVKGRFTISRDNEKNTVYLQMNSLKPEDTAVYYCAKTFYSLYWGQGTQVTGSS	low polyreactivity
QVQLVESGGGLVQAGGSLRLSCAASGRTFYRNAMGWYRQAPGKERELVAAISQRGGRTYYADSVKGRFTISRDNAKNTVYLQMNSLKPEDTAVYYCAASPIYPVYRRHGYWGQGTQVTVSS	high polyreactivity
QVQLVESGGGLVQAGGSLRLSCAASGSIFVINAMGWYRQAPGKERELVAAIDWSGDSTYYADSVKVRFTISRDNAKNTVYLEMNSLKPEDTAVYYCAADLDSRGTYGRYEYWGQGTQVTVSS	low polyreactivity

Sequence	polyreactivity (PSR sort gate)
QVQLVESGGGLVQAGGSLRLSCAASGIFRRYAMGWYRQAPGKERELVAAISSSGGSTDYADSVKGRFTISRDNAKNTVYLQMNSLKPEDTAVYYCNAYDQHGWWSYAYDYWGQGTQVTVSS	high polyreactivity
QVQLVESGGGLVQAGGSLRLSCAASGRTSVIYAMGWYGPAPGKERELVASIRRGCSTSYADSVKGRFTISRDNAKNTVYLQMNSLKPEDTAVFYCAALLYGYYHVWRNYYWGQGTQVTVSS	high polyreactivity
QVQLVESGGGLVQAGGSLRLSCAASGFIFRYYALGWYRQAPGKERELVAAISWRGGTTYYADSVKGRFTISRDNAKNTVYLQMQSLKPEDTAVYYCAADWQWDLGPYIYQVEYWGQGTLVTVSS	high polyreactivity
QVQLVESGGGLVQAGGSLRLSCAASGRIFTQNAMGWYRQAPGKERELVAAITSGGSTYYADSVKGRFTISRDNAKNTVYLQMNSLKPEDTAVYYCAAEYGTYFVRYYAGASYRYGYWGQGTQVTVSS	low polyreactivity
QVQLVESGGGLVQAGGSLRLSCAASGNIFRINGMGWYRQAPGKERELVASITRSGSTYYADSVKGRFTISRDNANNTVYLKMNSLKPEDTAVYYCAADSRRYGVRFDYWGQGTQVTVSS	low polyreactivity
QVQLVESGGGLVQAGGSLRLSCAASGSIFVDYAMGWYRQAPGKEMELVAAISSGGGSTYYADSVKGRFTISRDNAKNTVYLQMNSLKPEDTAVYYCAASVYGQHAGPGRWYTFYYWGQGTQVTVSS	low polyreactivity
QVQLVESGGGLVQAGGSLRLSCAASGRIFDYYAMGWYRQAPGKERELVARISSSGGSTYYADSVKGRFTISRDNAKNTVYLQKNSLKPEDTAVSYCDARSPRYWLRLREYWGQGTQVTVSS	high polyreactivity
QVQLVESGGGLVQAGGSLRLSCAASGFTFYWYDMGWDRQAPGKEREFVAAIVQSGGSTYYADSVKGRFSISRDNAKITVYLQMKSLKPEDTAVYYGAARYILWDGDSWTEFDYWGQGTQVTVSS	low polyreactivity
QVQLVESGGGIVQAGGSIRLSCAASGRIFRYYAMGWYRQAPGKERELVATISRSGGSTFYAESVKGRFTISRDNAKNTVYLQMNSLIPEDTAVYYCNARYQTGGYGYWGQGTQVTVSS	high polyreactivity
QVQLVESGGGLVQAGGSLRLSFADSGLILNFYAKSSYRQAPGKERELVAAISWNAGSTYYADSVKGRFTISREKSMNTGYVQMKSLKPEDTAVYYCAVLPGRYDKTASHYDYWGQGTQVTVSS	low polyreactivity
QVQLVESGGGLVQAGGSLRLSCAASGSTFTSNAMGWYREAPGKEREFVAAISVGGGITYYADSVKGRFTISRDNAKNTVSLQMNSLKPEDTAVYYCAADGEYPHSEDFEYWGQGTQVNVSS	low polyreactivity
QVQLVESGGRLVQAGGSLRLSCAPSGRTFRWYAMGWYRQSPGKERELVAAISRSGGSTYYADSVKGRFTISRDNAKYTVFLQMNILKPEDTAVYYCANVRYDFKLDYWGQGTQVTVSS	high polyreactivity
QVQLVESGGGLVQAGGSLRLSCAASGRTFYVNAMGWYRQAPGKERELVARISSSGITYYADSVKGRFTISRDNAKNSVSLQMNSLKPEDTAVYYCAAGPWFYYWGLGTQVTVSS	low polyreactivity
QVQLVESRGGLVQAGGSLRLSCAASGSIFYRNVMGWYTQAPRKEREWVAAISGRGGSTYYADSVKGRFTISRDNAKNTVYLQFTSLKPEDTAVYYCATELTYRHGYWGQGTQVTVSS	high polyreactivity
QVQLVESGGGLVQAGGSLRLICAASGRTFYVYAMAWYRQEPGKERELVAAISKSGGSTYYADSVKGRFTISRDNAKNSVYLPMNSLKPEDTAGYYCNRYRFVRQVRGGGLPYDYWGQGTQVTVSS	high polyreactivity
QVQLVESGGGLVQAGGSLRLSCAASGFIYRVYAIGWYRQAPGKERELVAAITGNGVSTYYADSVKVRFTISRDNAKNTVYLQMNSLKPEDTAVYYCATYGRRWYSSRRLDYWGQGTQVTVSS	low polyreactivity
QVQLVESGGGLVQAGGSLRLSCAASGSNFRGYTMGWYRQAPGKERELVANISTSVGRTYYADSVKGRFTISRDNAKNTVFLQMNSLKPEDTAVYYCNARRAYRWKPDTGSAGMDYWGQGTQVTVSS	high polyreactivity
QVQLVESGGGLVQAGGSLRLSCAASGFIFSGNAMGWYRQAPGKERELVAAISWSGTSTFYADSVKGRFTISRDNAKNTVYLQMNSLKPEDTAVYYCAAETYYSYWYRPHYDYWGQGTQVTVSS	low polyreactivity
QVQLVESGGGLVQAGGSLRLSCAASVSIFDLYAMRWYIQAPGKERELVAAISWSDSRTYYADSVKGRFTISRDNATNTVYLQKNSLKPEDTAVYYCAADYRYPDNYGGYDYWGQGTQLTVSS	low polyreactivity
QVQLVESGGGLVQAGGSLRLSCAASGRTYRWYVMGWYIQAPGTERELVAAISQSGGSTYYADSVKGRFTISRDNAMNTVYLEMYSLKPEDTAVYYCNAYPRYGGYAYGRGDYWGQGTQVTVSS	high polyreactivity
QVQLVESGGGLVQAGGSLRLSCAASGSTFDYNTMGWYRQAPGKERELVAGIRSSGARTYYADSVKGRFTISRDNAKNTVYLQMNSLKPEDTAVYYCAKTDGFYRGYGYWGQGTQVTVSS	low polyreactivity
